Here are results for one substance from patent US20260071233A1.

The target in the assay is Recombinant rat IFN-γ (rat) (UniProt P01581).
Sequence of UniProt P01581 (P01581 23-156 limits assumed): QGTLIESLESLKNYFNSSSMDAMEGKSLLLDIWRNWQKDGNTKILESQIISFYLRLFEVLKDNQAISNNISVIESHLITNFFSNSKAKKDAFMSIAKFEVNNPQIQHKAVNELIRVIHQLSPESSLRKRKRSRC

Take Recombinant B8R protein: the percent neutralization is more than 50%.
